Results published in IntAct's records for PubMed 16294310.

B1: Acyl carrier protein (Escherichia coli (strain K12)), P0A6A8 (parent)
chain: MSTIEERVKKIIGEQLGVKQEEVTNNASFVEDLGADSLDTVELVMALEEEFDTEIPDEEAEKITTVQAAIDYINGHQA
partner: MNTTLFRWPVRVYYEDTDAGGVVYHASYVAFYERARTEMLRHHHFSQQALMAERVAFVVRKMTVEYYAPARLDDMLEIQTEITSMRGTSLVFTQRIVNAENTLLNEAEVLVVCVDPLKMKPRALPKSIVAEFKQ

Variants of: B1
Conditions: with ybgc_ecoli ybgC

effect of a mutation on the interaction	Variant
disrupting interaction	MSTIEERVKKIIGEQLGVKQEEVTNNASFVEDLGADCLDTVELVMALEEEFDTEIPDEEAEKITTVQAAIDYINGHQA [S37C]
